The values below come from paper PMC3247018 (Journal of molecular biology, 2011).

B1: bacteriophage lambda gpE major capsid protein (natural protein, UniProt P03713 1-341, looked up)
chain: MSMYTTAQLLAANEQKFKFDPLFLRLFFRESYPFTTEKVYLSQIPGLVNMALYVSPIVSGEVIRSRGGSTSEFTPGYVKPKHEVNPQMTLRRLPDEDPQNLADPAYRRRRIIMQNMRDEELAIAQVEEMQAVSAVLKGKYTMTGEAFDPVEVDMGRSEENNITQSGGTEWSKRDKSTYDPTDDIEAYALNASGVVNIIVFDPKGWALFRSFKAVKEKLDTRRGSNSELETAVKDLGKAVSYKGMYGDVAIVVYSGQYVENGVKKNFLPDNTMVLGNTQARGLRTYGCIQDADAQREGINASARYPKNWVTTGDPAREFTMIQSAPLMLLADPDEFVSVQLA
B2: bacteriophage lambda gpNu3 scaffolding protein (natural protein, UniProt P03711-2 1-131, looked up)
chain: MTKETQSTTVSATASQADVTDVVPATEGENASAAQPDVNAQITAAVAAENSRIMGILNCEEAHGREEQARVLAETPGMTVKTARRILAAAPQSAQARSDTALDRLMQGAPAPLAAGNPASDAVNDLLNTPV

The target in data set [1] is bacteriophage lambda gpNu3 scaffolding protein (bacteriophage lambda) (UniProt P03711). In words: AUC.
The data set “SEC” deals with the molecule itself. Description: SEC. (SEC sorts molecules by how far they enter the pores of the column.)
Data set [2] addresses B1. In words: SEC.

In general, stoichiometry N refers to a count of units in the complex or per binding partner. On to “bacteriophage lambda gpNu3 scaffolding protein (from UniProt P03711-2 1-131) (natural protein)”, for which the stoichiometry N in data set [1] stood at 2.

Regarding B1, the binding result in the data set “SEC” is recorded as “binds”.

Regarding B2, the binding result in data set [2] was “binds”.
